Laboratory results from PMC10265101 (2023).

What was measured:
[1] = biological target: T1, recombinant PD-L1 protein (#10084-HNAH, Sino Biological) (UniProt Q9NZQ7 19-290); test: SPR; heterogeneous ligand fit, KD2 (second site)
CD3ε = test: SPR
[2] = biological target: T1, recombinant PD-L1 protein (#10084-HNAH, …); test: SPR; heterogeneous ligand fit, KD1

T1 sequence (Q9NZQ7 19-290): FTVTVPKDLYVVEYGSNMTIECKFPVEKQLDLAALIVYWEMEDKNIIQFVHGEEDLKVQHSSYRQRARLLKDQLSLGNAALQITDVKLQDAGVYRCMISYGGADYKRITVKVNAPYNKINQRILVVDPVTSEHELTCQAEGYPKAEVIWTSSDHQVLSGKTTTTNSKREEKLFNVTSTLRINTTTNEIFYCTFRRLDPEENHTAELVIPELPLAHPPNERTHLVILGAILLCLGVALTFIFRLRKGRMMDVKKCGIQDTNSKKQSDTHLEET

Kd [1]: 0.00205 nM | Kd (CD3ε): 2.48 nM | Kd [2]: 9.86 nM
B1: recombinant Nb-BiTE (PD-L1/CD3ε Nb-BiTE) (bispecific antibody)
chain: HVQLVESGGGLVQPGGSLRLSCAASGFTFSSKAMSWVRQAPGKGLDWVSTINSGGGNTYYSDSVKGRFTISRDNAKNTLYLQLNSLKTEDTAMYYCSRCSDIYCGGQYTYRGQGTLVTVSSGGGGSGGGGSGGGGSEVQLVESGGGLVQPGGSLRLSCVASGFTFSSIGMSWVRQAPGKGLEWVSGLNPVGSHTGYADSVKGRFTISRDNAKNTLHLQLNSLKTEDTAMYYCQRGYTCSGDLCERGQGTQVTVSSGGGGSGGGGSGGGGSHVQLVESGGGSVQAGGSLRLSCTVSGVIFKNEYMGWFRQAPGKEREGVAAASPGGTITYYGDSVKGRFTISRDNAKNTVYLQMNRLKPEDTAMYYCALDPSTTSWSIIRHGPSLWRYSGRGTQVTVSS
